{
  "source": "paper doi:10.1101/390674",
  "about": "(bioRxiv, 2018)",
  "molecular_target": "ribosomal protein uL16 (Escherichia coli (strain MRE600), UniProt P0ADY7 1-136)",
  "assay": "cryo-EM structure",
  "data": [
    {"binder": "initiation factor 2, γ-isoform (natural protein) not shown", "values": [
      {"measurement": "binding result", "result": "binds"}
    ]}
  ]
}
